B1: Ubiquitin-protein ligase (Homo sapiens), Q05086-2 (parent)
chain: MKRAAAKHLIERYYHQLTEGCGNEACTNEFCASCPTFLRMDNNAAAIKALELYKINAKLCDPHPSKKGASSAYLENSKGAPNNSCSEIKMNKKGARIDFKDVTYLTEEKVYEILELCREREDYSPLIRVIGRVFSSAEALVQSFRKVKQHTKEELKSLQAKDEDKDEDEKEKAACSAAAMEEDSEASSSRIGDSSQGDNNLQKLGPDDVSVDIDAIRRVYTRLLSNEKIETAFLNALVYLSPNVECDLTYHNVYSRDPNYLNLFIIVMENRNLHSPEYLEMALPLFCKAMSKLPLAAQGKLIRLWSKYNADQIRRMMETFQQLITYKVISNEFNSRNLVNDDDAIVAASKCLKMVYYANVVGGEVDTNHNEEDDEEPIPESSELTLQELLGEERRNKKGPRVDPLETELGVKTLDCRKPLIPFEEFINEPLNEVLEMDKDYTFFKVETENKFSFMTCPFILNAVTKNLGLYYDNRIRMYSERRITVLYSLVQGQQLNPYLRLKVRRDHIIDDALVRLEMIAMENPADLKKQLYVEFEGEQGVDEGGVSKEFFQLVVEEIFNPDIGMFTYDESTKLFWFNPSSFETEGQFTLIGIVLGLAIYNNCILDVHFPMVVYRKLMGKKGTFRDLGDSHPVLYQSLKDLLEYEGNVEDDMMITFQISQTDLFGNPMMYDLKENGDKIPITNENRKEFVNLYSDYILNKSVEKQFKAFRRGFHMVTNESPLKYLFRPEEIELLICGSRNLDFQALEETTEYDGGYTRDSVLIREFWEIVHSFTDEQKRLFLQFTTGTDRAPVGGLGKLKMIIAKNGPDTERLPTSHTCFNVLLLPEYSSKEKLKERLLKAITYAKGFGML
B2: Ubiquitin-protein ligase (Homo sapiens), Q05086-1 (parent)
chain: MEKLHQCYWKSGEPQSDDIEASRMKRAAAKHLIERYYHQLTEGCGNEACTNEFCASCPTFLRMDNNAAAIKALELYKINAKLCDPHPSKKGASSAYLENSKGAPNNSCSEIKMNKKGARIDFKDVTYLTEEKVYEILELCREREDYSPLIRVIGRVFSSAEALVQSFRKVKQHTKEELKSLQAKDEDKDEDEKEKAACSAAAMEEDSEASSSRIGDSSQGDNNLQKLGPDDVSVDIDAIRRVYTRLLSNEKIETAFLNALVYLSPNVECDLTYHNVYSRDPNYLNLFIIVMENRNLHSPEYLEMALPLFCKAMSKLPLAAQGKLIRLWSKYNADQIRRMMETFQQLITYKVISNEFNSRNLVNDDDAIVAASKCLKMVYYANVVGGEVDTNHNEEDDEEPIPESSELTLQELLGEERRNKKGPRVDPLETELGVKTLDCRKPLIPFEEFINEPLNEVLEMDKDYTFFKVETENKFSFMTCPFILNAVTKNLGLYYDNRIRMYSERRITVLYSLVQGQQLNPYLRLKVRRDHIIDDALVRLEMIAMENPADLKKQLYVEFEGEQGVDEGGVSKEFFQLVVEEIFNPDIGMFTYDESTKLFWFNPSSFETEGQFTLIGIVLGLAIYNNCILDVHFPMVVYRKLMGKKGTFRDLGDSHPVLYQSLKDLLEYEGNVEDDMMITFQISQTDLFGNPMMYDLKENGDKIPITNENRKEFVNLYSDYILNKSVEKQFKAFRRGFHMVTNESPLKYLFRPEEIELLICGSRNLDFQALEETTEYDGGYTRDSVLIREFWEIVHSFTDEQKRLFLQFTTGTDRAPVGGLGKLKMIIAKNGPDTERLPTSHTCFNVLLLPEYSSKEKLKERLLKAITYAKGFGML
partner: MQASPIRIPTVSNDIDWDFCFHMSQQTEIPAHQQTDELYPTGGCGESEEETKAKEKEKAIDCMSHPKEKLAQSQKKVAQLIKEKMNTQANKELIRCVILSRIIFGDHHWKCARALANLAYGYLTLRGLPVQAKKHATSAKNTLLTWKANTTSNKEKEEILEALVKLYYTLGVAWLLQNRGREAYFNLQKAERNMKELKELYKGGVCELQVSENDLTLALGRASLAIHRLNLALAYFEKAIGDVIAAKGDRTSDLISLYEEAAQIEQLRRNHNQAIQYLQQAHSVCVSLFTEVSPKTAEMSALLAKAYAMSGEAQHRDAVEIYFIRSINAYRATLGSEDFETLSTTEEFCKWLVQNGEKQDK
B3: Ubiquitin-protein ligase (Homo sapiens), Q05086-3 (parent)
chain: MATACKRSGEPQSDDIEASRMKRAAAKHLIERYYHQLTEGCGNEACTNEFCASCPTFLRMDNNAAAIKALELYKINAKLCDPHPSKKGASSAYLENSKGAPNNSCSEIKMNKKGARIDFKDVTYLTEEKVYEILELCREREDYSPLIRVIGRVFSSAEALVQSFRKVKQHTKEELKSLQAKDEDKDEDEKEKAACSAAAMEEDSEASSSRIGDSSQGDNNLQKLGPDDVSVDIDAIRRVYTRLLSNEKIETAFLNALVYLSPNVECDLTYHNVYSRDPNYLNLFIIVMENRNLHSPEYLEMALPLFCKAMSKLPLAAQGKLIRLWSKYNADQIRRMMETFQQLITYKVISNEFNSRNLVNDDDAIVAASKCLKMVYYANVVGGEVDTNHNEEDDEEPIPESSELTLQELLGEERRNKKGPRVDPLETELGVKTLDCRKPLIPFEEFINEPLNEVLEMDKDYTFFKVETENKFSFMTCPFILNAVTKNLGLYYDNRIRMYSERRITVLYSLVQGQQLNPYLRLKVRRDHIIDDALVRLEMIAMENPADLKKQLYVEFEGEQGVDEGGVSKEFFQLVVEEIFNPDIGMFTYDESTKLFWFNPSSFETEGQFTLIGIVLGLAIYNNCILDVHFPMVVYRKLMGKKGTFRDLGDSHPVLYQSLKDLLEYEGNVEDDMMITFQISQTDLFGNPMMYDLKENGDKIPITNENRKEFVNLYSDYILNKSVEKQFKAFRRGFHMVTNESPLKYLFRPEEIELLICGSRNLDFQALEETTEYDGGYTRDSVLIREFWEIVHSFTDEQKRLFLQFTTGTDRAPVGGLGKLKMIIAKNGPDTERLPTSHTCFNVLLLPEYSSKEKLKERLLKAITYAKGFGML
partner: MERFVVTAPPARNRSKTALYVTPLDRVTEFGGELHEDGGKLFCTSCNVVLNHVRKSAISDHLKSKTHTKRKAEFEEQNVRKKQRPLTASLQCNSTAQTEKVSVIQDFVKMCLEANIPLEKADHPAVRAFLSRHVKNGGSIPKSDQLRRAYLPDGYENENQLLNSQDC
B4: Ubiquitin-protein ligase (Homo sapiens), Q05086-1 (parent)
chain: B2 chain
partner: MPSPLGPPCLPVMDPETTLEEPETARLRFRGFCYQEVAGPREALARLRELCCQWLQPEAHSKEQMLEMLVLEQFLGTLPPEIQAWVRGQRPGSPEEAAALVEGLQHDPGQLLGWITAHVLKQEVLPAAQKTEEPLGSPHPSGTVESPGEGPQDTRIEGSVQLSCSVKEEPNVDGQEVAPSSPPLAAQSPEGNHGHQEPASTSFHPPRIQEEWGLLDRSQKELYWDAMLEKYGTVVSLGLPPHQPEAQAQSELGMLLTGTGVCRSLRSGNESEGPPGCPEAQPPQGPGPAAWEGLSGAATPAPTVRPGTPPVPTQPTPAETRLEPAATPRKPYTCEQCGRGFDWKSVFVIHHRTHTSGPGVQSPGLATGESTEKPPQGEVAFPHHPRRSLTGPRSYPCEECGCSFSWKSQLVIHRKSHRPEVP
B5: Ubiquitin-protein ligase (Homo sapiens), Q05086-1 (parent)
chain: B2 chain

Variants of B1 are the subject of the first experiment. The settings on record: with ZNF250, P15622-3.
Target sequence in this assay (P15622 other isoform, or with tags, fused parts or gaps): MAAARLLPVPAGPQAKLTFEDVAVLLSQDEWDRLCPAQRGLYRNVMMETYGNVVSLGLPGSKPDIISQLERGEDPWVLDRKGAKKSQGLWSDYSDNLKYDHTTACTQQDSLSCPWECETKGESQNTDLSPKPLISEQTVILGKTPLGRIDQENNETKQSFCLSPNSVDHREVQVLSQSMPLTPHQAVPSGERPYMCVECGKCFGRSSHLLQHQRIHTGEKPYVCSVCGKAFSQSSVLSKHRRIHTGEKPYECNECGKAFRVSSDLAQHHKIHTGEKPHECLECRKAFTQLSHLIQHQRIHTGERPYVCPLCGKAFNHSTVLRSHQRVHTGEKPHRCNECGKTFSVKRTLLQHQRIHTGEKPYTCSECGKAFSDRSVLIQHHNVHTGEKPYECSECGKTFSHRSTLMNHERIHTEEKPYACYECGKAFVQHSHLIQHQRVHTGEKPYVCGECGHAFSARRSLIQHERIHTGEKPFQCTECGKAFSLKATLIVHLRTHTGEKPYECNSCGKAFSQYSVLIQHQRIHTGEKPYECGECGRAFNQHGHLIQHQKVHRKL
C820A: the “effect of a mutation on the interaction” value was “causing an interaction”.

A further experiment covers variants of B1. The settings on record: with PAX6, P26367-1.
Target sequence in this assay (P26367 whole entry): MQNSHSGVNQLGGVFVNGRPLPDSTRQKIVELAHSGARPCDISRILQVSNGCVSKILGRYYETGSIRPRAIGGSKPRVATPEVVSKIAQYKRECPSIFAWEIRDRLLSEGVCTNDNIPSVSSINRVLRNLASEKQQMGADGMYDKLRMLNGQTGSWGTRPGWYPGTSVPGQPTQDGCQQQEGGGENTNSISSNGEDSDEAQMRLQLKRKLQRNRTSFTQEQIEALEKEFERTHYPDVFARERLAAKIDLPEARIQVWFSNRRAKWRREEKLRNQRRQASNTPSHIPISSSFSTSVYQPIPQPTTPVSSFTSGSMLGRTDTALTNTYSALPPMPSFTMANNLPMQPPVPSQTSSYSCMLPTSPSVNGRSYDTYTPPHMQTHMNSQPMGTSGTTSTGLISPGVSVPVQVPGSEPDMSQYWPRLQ
On to C820A, for which the “effect of a mutation on the interaction” value is given as “causing an interaction”.

In the next experiment the parent is B1. Conditions: with magac_human MAGEA12, P43365.
Target sequence in this assay (P43365 whole entry): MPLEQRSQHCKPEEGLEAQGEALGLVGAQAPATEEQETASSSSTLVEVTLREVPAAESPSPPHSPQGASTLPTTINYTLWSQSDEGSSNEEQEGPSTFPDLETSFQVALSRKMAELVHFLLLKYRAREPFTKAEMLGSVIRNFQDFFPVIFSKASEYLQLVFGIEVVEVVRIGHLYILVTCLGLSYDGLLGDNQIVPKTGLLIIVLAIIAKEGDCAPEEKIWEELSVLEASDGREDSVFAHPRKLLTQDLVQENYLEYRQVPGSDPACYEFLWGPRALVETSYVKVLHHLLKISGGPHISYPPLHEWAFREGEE
Take C820A: the “effect of a mutation on the interaction” value is “with no effect”.

In a further experiment the parent is B1. The settings on record: with PSMD4, P55036-1.
Target sequence in this assay (P55036 whole entry): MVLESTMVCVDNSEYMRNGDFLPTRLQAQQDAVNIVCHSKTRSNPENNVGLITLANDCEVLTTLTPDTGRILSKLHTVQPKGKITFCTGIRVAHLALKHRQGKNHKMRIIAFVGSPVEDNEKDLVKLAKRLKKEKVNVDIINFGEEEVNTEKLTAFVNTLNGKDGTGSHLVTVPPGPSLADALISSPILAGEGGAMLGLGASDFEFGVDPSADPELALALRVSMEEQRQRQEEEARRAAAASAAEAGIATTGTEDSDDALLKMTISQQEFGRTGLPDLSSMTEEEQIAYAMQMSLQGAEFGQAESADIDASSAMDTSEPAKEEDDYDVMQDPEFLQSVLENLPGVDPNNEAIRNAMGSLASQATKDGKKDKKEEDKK
As to C820A, the “effect of a mutation on the interaction” value was “with no effect”.

A further experiment covers variants of B1. The settings on record: with PAX5, Q02548-1.
Target sequence in this assay (Q02548 whole entry): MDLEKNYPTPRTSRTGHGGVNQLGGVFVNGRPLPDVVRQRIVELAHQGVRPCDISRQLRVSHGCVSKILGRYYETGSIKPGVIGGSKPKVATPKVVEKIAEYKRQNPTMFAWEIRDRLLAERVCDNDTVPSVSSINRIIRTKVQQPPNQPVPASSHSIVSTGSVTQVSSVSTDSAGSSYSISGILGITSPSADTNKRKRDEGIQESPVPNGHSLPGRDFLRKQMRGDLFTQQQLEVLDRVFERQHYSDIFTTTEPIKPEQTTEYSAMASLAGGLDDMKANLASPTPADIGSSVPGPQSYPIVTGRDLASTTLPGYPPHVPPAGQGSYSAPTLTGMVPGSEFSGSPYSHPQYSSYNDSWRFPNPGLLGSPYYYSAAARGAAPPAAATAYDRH
As to C820A, the “effect of a mutation on the interaction” value is listed as “causing an interaction”.

The variants in another experiment derive from B1. The settings on record: with PTCD3, Q96EY7-1.
For C820A, the “effect of a mutation on the interaction” value was “with no effect”.

The variants in the next experiment derive from B1. Conditions: with ubql2_human UBQLN2, Q9UHD9.
Target sequence in this assay (Q9UHD9 whole entry): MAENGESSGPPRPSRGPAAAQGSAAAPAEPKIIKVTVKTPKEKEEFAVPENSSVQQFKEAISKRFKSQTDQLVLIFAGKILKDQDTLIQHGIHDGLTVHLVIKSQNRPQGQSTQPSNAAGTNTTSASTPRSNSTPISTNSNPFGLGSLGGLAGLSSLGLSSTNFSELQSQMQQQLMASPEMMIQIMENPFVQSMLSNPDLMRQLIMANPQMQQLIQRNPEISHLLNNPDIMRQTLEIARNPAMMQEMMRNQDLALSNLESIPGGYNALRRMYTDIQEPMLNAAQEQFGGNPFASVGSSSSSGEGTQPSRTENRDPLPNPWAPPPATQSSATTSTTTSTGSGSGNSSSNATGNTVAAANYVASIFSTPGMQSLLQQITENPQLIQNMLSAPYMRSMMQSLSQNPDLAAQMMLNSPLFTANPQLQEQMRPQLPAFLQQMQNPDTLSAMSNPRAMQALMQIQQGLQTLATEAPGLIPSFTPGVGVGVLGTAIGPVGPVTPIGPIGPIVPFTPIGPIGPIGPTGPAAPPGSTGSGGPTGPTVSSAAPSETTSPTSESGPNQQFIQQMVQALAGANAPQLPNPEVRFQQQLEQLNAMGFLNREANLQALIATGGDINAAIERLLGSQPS
In the case of C820A, the “effect of a mutation on the interaction” value is listed as “with no effect”.

The variants in another experiment derive from B1. Conditions: with UBQLN1, Q9UMX0-1.
Target sequence in this assay (Q9UMX0 whole entry): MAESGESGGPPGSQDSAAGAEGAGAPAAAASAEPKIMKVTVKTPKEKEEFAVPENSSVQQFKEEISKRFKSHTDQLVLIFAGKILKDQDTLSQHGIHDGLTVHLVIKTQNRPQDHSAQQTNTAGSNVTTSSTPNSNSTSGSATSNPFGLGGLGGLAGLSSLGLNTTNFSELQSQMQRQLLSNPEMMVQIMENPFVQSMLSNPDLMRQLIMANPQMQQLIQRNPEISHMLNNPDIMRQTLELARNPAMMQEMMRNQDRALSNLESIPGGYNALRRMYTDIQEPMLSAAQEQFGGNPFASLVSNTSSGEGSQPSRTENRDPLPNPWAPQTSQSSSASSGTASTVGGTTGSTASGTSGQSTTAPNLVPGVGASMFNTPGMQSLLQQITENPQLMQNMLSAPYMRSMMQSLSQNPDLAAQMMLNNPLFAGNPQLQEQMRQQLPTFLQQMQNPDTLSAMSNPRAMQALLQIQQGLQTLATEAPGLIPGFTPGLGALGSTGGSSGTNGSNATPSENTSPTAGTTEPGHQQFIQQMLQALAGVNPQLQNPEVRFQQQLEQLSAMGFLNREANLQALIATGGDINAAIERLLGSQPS
Take C820A: the “effect of a mutation on the interaction” value was “with no effect”.

Variants of B1 are the subject of a further experiment. Conditions: with herc2_human HERC2, O95714.
As to C820A, the “effect of a mutation on the interaction” value is given as “causing an interaction”.

The next experiment covers variants of B2. Conditions: with TTC23L.
With C843A, the “effect of a mutation on the interaction” value is recorded as “causing an interaction”.

Variants of B3 are the subject of another experiment. The settings on record: with cgbp1_human CGGBP1, Q9UFW8.
As to C840A, the “effect of a mutation on the interaction” value is “causing an interaction”.

The variants in another experiment derive from B4. The settings on record: with ZNF446, Q9NWS9-2.
Consider C843A, for which the “effect of a mutation on the interaction” value was “causing an interaction”.

Variants of B5 are the subject of a further experiment. The settings on record: with ZNF250, P15622-3.
Target sequence in this assay (P15622 other isoform, or with tags, fused parts or gaps): as the sequence (P15622 other isoform, or with tags, fused parts or gaps) above
Regarding C843A, the “effect of a mutation on the interaction” value was “causing an interaction”.

In a further experiment the parent is B5. Conditions: with PAX6, P26367-1.
Target sequence in this assay (P26367 whole entry): as the sequence (P26367 whole entry) above
Turning to C843A, the “effect of a mutation on the interaction” value is reported as “causing an interaction”.

Another experiment covers variants of B5. The settings on record: with magac_human MAGEA12, P43365.
Target sequence in this assay (P43365 whole entry): as the sequence (P43365 whole entry) above
With C843A, the “effect of a mutation on the interaction” value is “causing an interaction”.

Variants of B5 are the subject of another experiment. Conditions: with PSMD4, P55036-1.
Target sequence in this assay (P55036 whole entry): as the sequence (P55036 whole entry) above
Regarding C843A, the “effect of a mutation on the interaction” value was “with no effect”.

Variants of B5 are the subject of the next experiment. Conditions: with PAX5, Q02548-1.
Target sequence in this assay (Q02548 whole entry): as the sequence (Q02548 whole entry) above
With C843A, the “effect of a mutation on the interaction” value is listed as “causing an interaction”.

The variants in the next experiment derive from B5. Conditions: with PTCD3, Q96EY7-1.
For C843A, the “effect of a mutation on the interaction” value was “with no effect”.

Variants of B5 are the subject of the next experiment. Conditions: with ubql2_human UBQLN2, Q9UHD9.
Target sequence in this assay (Q9UHD9 whole entry): as the sequence (Q9UHD9 whole entry) above
On to C843A, for which the “effect of a mutation on the interaction” value is given as “with no effect”.

The next experiment covers variants of B5. The settings on record: with UBQLN1, Q9UMX0-1.
Target sequence in this assay (Q9UMX0 whole entry): as the sequence (Q9UMX0 whole entry) above
On to C843A, for which the “effect of a mutation on the interaction” value is on record as “with no effect”.
